Results on 17 sequences are retold here after a protein production outcome set (Wang et al. 2014).

A short description of this data set: label from the status in PepcDB records.
Consider “MTFAWGRGSHGGAGMRIVQITDTHFSPTKAHFNGNWAPLAAWIEQSGADLVIHTGDLSVDGADRDDDIAFCMDLMREISAPMLLVPGNHDVGHLPGSLQPVNAGRLERWRRLVGPDYWMEDAGSWRLIGLDSLLMGFDDAEEEAQFDWLRTVLESRGGRRVALFAHKPLFVDAPGEGDTGYWSVRPAQRQRLYDLIATHDVALFASGHLHRAWQGKYENTSLVWGPSAAFVVGDMERDMPGERLLGAVIHQFSDTVTSEIVAIPGMTAYVLDDVVAEVYPHEAHKARKRVASLEHHHHHH”, for which the protein production result is on record as “failed”. The result for “MTFEDLHEYLDYLAKKNDLVTITEEVDPNLDLTYILSEEERMGRGRTILFKNVKGSQVPAVGNLFSTNEKLKAVLGDDPYSIGVKIADIVKPPRDSESFIGKGLEMMRELSGLRPKVSNSIPSGYSELEKVDLYRYPICKTWPDDGGPFITLPLVITKDPSTGIRNMGMYRMQVYDSETTGMHWHIHKGGSENFLKEKEKGKAMDVAVVIGSDPLTIFSAVAPLPNGIDEFMFRGLISRKRSELVKGKTVDLEYPRNFEIVLEGYIDPSETRVEGPFGDHTGYYSLEEEFPVFHVKNIIERNDRIYPTTIVGKLWHEDVVLGKAVERMFLPLIQMVLPEVVDINTMEEAVFHNMVIVSIKKRYPGHAKKVMFALWGLGQLMFSKIIVVVDDDINIHNRKELIWAMTTRIDPDRDVIIIPGTVTDSLDHAAPLFNYGSKMGIDATKKDKSEGYTRRWPDVLEMPKDVVDKVRQIMKNNRLIQLEHHHHHH” reads “failed”; that for “MTFEEFKDRLFALAKKNGVEVQISFLETREFSLRLANGDLDQYTDAGKFNVEIKVLKDGKTGTFRTQVLENPEKCFEEALSNLQVKDSEEKEYFFEGGKEYREMETYVGRFEKLSVKEKMDMAKKAHESAAKDERVVMVPTVMYKDMVIKKIITNTLGLDVESQMDGGFLFAMAIARDANPRSGSWYELARTPEDLNPEEIGKRAAEEAISLIGSKTIPSGKYPVLMRNTALLDLMEMFIPMISAENVQKNLSPLKGKLGEQVGNPAVSIKDLPYHPKGLSSTPFDDEGVPTTEKFVLENGVLKTFLHNLKTARKEGVEPTGNGFVGGIRPVNLMLMPGEKSFEELLKEMDRGVVITEVEGMHAGANSISGEFSLFAKGYWVENGEIAHGVEDITISGNFLDLLRKIVLVGNDVKVSQHTIAPSVLVEVLDVAGK”, “not failed”. The result for “MTFKRSLFFLLLLLSVATARAQIDVDRVITIGRNALYFNDYVVSIGYFNQVVGLRPWMAEPYFYRGIAKISLEDYTGAEADASACLQRNALIPKAYLLRGVARQNLGKIDSAIQDYRRGLELMPNDEGMLVNLTGVLTDSKRYAEAREGVAELLKFYPKSKQAHIALSAIELGEQDTVAAIRELNEVLRMDSLFAPAYSQMAMLHLKSKRNAEAMAALDKAIELEPSELSNYINRGVIRYQSNDLRGAMDDYSHVVRQKPNDKLARFNRALLRSYLGDVNNAIEDFDVVIRLEPENYHALYNRAILLTQINENRKAITDFDKVLGHYPDFVVGYYARSQAKKALGDTRGAERDYWRAFDIEKAAQSKTKKTKKSSSSTSTKETREDSDETIEKFNLLVVSEKSSEKRTRYSSRIRGRIQDNDVEVQPSPLFVLSYYEQSSSEEVPRVYYSEAIARFNDKKVLPKRLKPINREVALSQEQVAYHEQDITEISERTAGNADLCFRRALDYMLIQNLEQAIVDFDQAVELNKQFALAYFGRAIARAKLVEARQGASFIHQEAETVNAMTKALITTPRTNAMGVPAAAESPERKPAISDVDGELVMRDLNRTIELDPNFAYAYYNRAVLLARRGDTDAALSDYDRAIKAYPEFADAYFNRGLLLLSRGKAKEGIADLSRAGEYGLYKAYNIIKRMSTKS” reads “failed”.

On to “MTFPSVALVVVYVGGLVILGFGMAKIVYVPMALYFDWLYRSICARHRYSVLSDRPLVSVIVPGYNEAVVITGCVESILASRYLRLEVILVDDGSTDETASIMEGLAQQYDRVRFLSQANAGKGAALNCGIAAALGDILMFVDADGVFAPDTLIHMLEGFDDPKVGAVCGDDRPVNLDRLQTMMLAILSHVGTGLVRRALSLMNCLPIVSGNIGAFRSDLVRELGGFHEDTLGEDLELTWRVYKAGYRVRFQPKALVYAESPSTMGGLWRQRVRWSRGLLQTLRLHSGMLGSRRYGMFGAFLVFNAITMVLIPILQLVVLALLPFLYVAGMGPVPAEVLAILGWLGVFVSLALIVFSVGLNRSWRDLRFLWTLPLWPFYSVFVGLALASAIVKEIRGSPARWNKLQRTGIKSVTATHSVTSTDVSQRQEAHA”, for which the protein production entry is recorded as “failed”. The result for “MTFSQMILNLQNYWQEQGCAIMQPYDMPAGAGTFHPATFLRSLGKKPWAAAYVAPSRRPTDGRYGENPNRLGAYYQFQVLIKPSPDNIQELYLKSLENLGFDLKSHDIRFVEDNWESPSLGAWGLGWEVWLDGMEVTQFTYFQQVGGIAVDLVSAEITYGLERIAMYLQNVDNVYDIVWSEFNGEKIKYADVHKQSEYEFSKYNFEVSDVKILNEQFENSYKECKNILEQGLALPAYDYCMLAAHTFNLLDARGAISVAQRQDYMLKIRELSKNCAEIYKKNLNEAE” reads “not failed”. Take “MTGEKIRSLRRDHKPSKEEGDLLEPGDEEAAAALGGTFTRSRIGKGGKACHKIFSNHHHRLQLKAAPASSNPPGAPALPLHNSSVTANSQSPALLAGTNPVAVVADGGSCPAHYPVHECVFKGDVRRLSSLIRTHNIGQKDNHGNTPLHLAVMLGNKECAHLLLAHNAPVKVKNAQGWSPLAEAISYGDRQMITALLRKLKQQSRESVEEKRPRLLKALKELGDFYLELHWDFQSWVPLLSRILPSDACKIYKQGINIRLDTTLIDFTDMKCQRGDLSFIFNGDAAPSESFVVLDNEQKVYQRIHHEESEMETEEEVDILMSSDIYSATLSTKSISFTRAQTGWLFREDKTERVGNFLADFYLVNGLVLESRKRREHLSEEDILRNKAIMESLSKGGNIMEQNFEPIRRQSLTPPPQNTITWEEYISAENGKAPHLGRELVCKESKKTFKATIAMSQEFPLGIELLLNVLEVVAPFKHFNKLREFVQMKLPPGFPVKLDIPVFPTITATVTFQEFRYDEFDGSIFTIPDDYKEDPSRFPDL”: the protein production result is recorded as “failed”. The result for “MTGKKTLSIVGASGYAGGEFLRLALSHPYLEVKQVTSRRFAGEPVHFVHPNLRGRTNLKFVPPEKLEPADILVLALPHGVFAREFDRYSALAPVLVDLSADFRLKDPELYRRYYGEHPRPDLLGRFVYAVPELYREALKGADWIAGAGCNATATLLGLYPLLKAGVLKPTPIFVTLLISTSAGGAEASPASHHPERAGSIRVYKPTGHRHTAEVVENLPGRPEVHLTAIATDRVRGILMTAQCFVQDGWSERDVWQAYREAYAGEPFIRLVKQKKGVHRYPDPRFVQGTNYADIGFELEEDTGRLVVMTAIDNLVKGTAGHALQALNVRMGWPETLGLDFPGLHP” reads “not failed”; that for “MTGMRKTLKATLAEARAQVEAALKEEGFGILTEIDVAATLKAKLGLEKPPYLILGACNPNLAARALEALPEIGLLLPCNVVLREAEEGVEVLIQDPKEMFRVLPEATQRALAPVAEEARTRLSRALSRL”, “not failed”. Regarding “MTGPTPTEAVDITVSVGGFKVGDQNYPINPKITFTNNTGQAIPGGTEFQFDIPVSAPDNAKDQSGGGLKVIASGHTRANNIGGLDGVMHRVSFSLPAWKDLPAGGTYELDMVYYLPISGPANYSVISGGKEFAFKFEQPDLPIGDLNAGTGGGGTTEPGSCDTAGLVTYPNLPQTDLEHHHHHH”, the protein production entry is “failed”. In the case of “MTGRDLMLITGISPIILRFLFGGTAVVASRLVARSFGGRLGGVFAAFPAVYLAAVAGLSMEYEGSELLSVSEQLSRGALVGMSADICCALAASYLILKYGWKTGLSLSLLFWAVLAPVIYFTWF”, the protein production entry is listed as “failed”. Regarding “MTGVLTADRPPKPAAPRRYTVALARDEDDVRAAQRLRHDVFAGEMGALLASPQPGHDVDAFDAYCDHLLVREETTGQVVGTYRLLPPERAAVAGRLYAESEFDLAALDPIRSSLVEVGRSCVHPDHRDGAVIGLVWAGIARYMTDRGHAWLAGCCSLPLADGGALAAGAWDRVRTKHLAPEEYRVRPLLPWVPRPAAPAARTELPALLRGYLRLGAWVCGEPAHDVDFGVADLYVLLPMNRVDPRYLRHFLSLAPA”, the protein production entry is on record as “failed”. For “MTHASILISVIIPAYNAAKFLPDAIASVEKQTFTDWELLIINDGSTDDTIEVVREHQKTSDCIYLINQTNQGVSAARNQGVAHSQGQIIAFLDADDQWLPDKLSQHWQHFQSNSRLGVSFAQVEILDQAGEPTGQVSTSRLNDLKPEYFLSENPTTTTSNWVIRKEVFTQVGGFCLDMSYSEDLEWLLRVSSTTDWQIQGINQVLTRYRTSSSGLSSNLYYMEAGWKQLVNRARIYAPQLVHNHFALAQAVHLRYLARRAFRLKLPARVGVDFITRALISDWRLLFHQPQRTFFTLLAVFGALVMERVFGLNTHRGSTAKAEPFRGSIP”, the protein production entry is recorded as “failed”. Take “MTHPATVYSLSTRLLHWSMAFCFIGAIVLAYFVIWVLGHDHPQRLPVLNLHWVLGLLVGLLLVPRIVSRLRGPRLPAVPGTPLEHRLAHYAHLSLYALMLVMPLTGYVGTRLPTDFGLFVVPSFKDTALFAWISQTLNLSWEAFEKPFDAVHRVVGLWLSTSVVLLHALAAGYHQWVRRDGTLERMLGRRQRR”: the protein production entry was “failed”. Under “MTHTITIVGLGNYGIDELPLGIYRFLEKESKVYARTLNHPVINTLKKEIEFESFDSIYEAHDRFEDVYEAIVTSLIELAQSEDIVYAVPGHPRVAETTTVKLLEYSHFNKDISVKVLGGKSFIDDIFEAVDVDPNDGFTLLDGTSLKESALNVRTNTVITQVYSVMIAADLKLTLMERYPDDFNVKIITGSHSDGAHVIECPLYEIDRYDDYFNNLTSLFIPKINEDTLLYQDFDYAVQTIDLLVDNEKGCPWDKVQTHDSLKRYLLEETFELFEAIDNEDDWHMIEELGDILLQVLLHSSIGKKEGYIDIKEIIESLNTKMIHRHPHIFGNAHVTSQEDLKDIWSRAKEKEGKVPRVKFEKVFADHFLKLYDKTKNRQFDEDDLKQFLQQGEKNS” stands “failed”; under “MTIFVLSSLLAILLAVAIYNSEPSSYAHRSPTYGIGYVFVYIIAAFLFSFVIIYLGRKKKLRIFKVIYSIVVAYVIFYVFLILLSIFLYNVYAIFTVSIVVAIVFFYMILFRNEWYVTDLAGFFLSVGISSIWGITFGVWAAVAFLIAFEIYDYIAVYKTRHMISLARYAVDSDLPMLFVLPENSGFTMRGLSFDNRGDGNVLMIGFGDIALPSIMVVSSAIYGISHILFFTVLPLAGGLIGMAVLYFWNRDRPAPGLPYINTGTIAGFLIAFLAFRVF”, “failed”. The result for “MTIFYYSFIILALLACLTVSFRIKKQQYLILYLFVIVLLSLLAGLRYDNADYENYLEIFKNPWEVSPDKGFSAFVLIVRWFTTSPIYMFLPVAIIAVSLNISSYRKYSPYLFVSVLFYFVHSFLLKEYVQIRAGLSCAICLYAIRYIEYKSLWKYIACMVIAMSIHMSSIIFFPMFWVYYFMKNKSNSCLMYFLLLSFIIGTLYPFGQVIKAYVPFLDETSRIATYANWDQFNNEIGILTNFTTLKQIILCVLCYIYWTRLKEVISCFSVLYLAYVLSTCWLMLFNDFVIIGARMATFLSVGEPIFFAGFLCLFNKQSRILVTLFFIIISCIIMDVNLHTKNLGEFKLYPLTSLF” reads “failed”.
